Reference: the supplement of paper PMC10126150
± gives the standard deviation of the averaged measurements.

Test system: ATP
Test: switch fluorescence ratio, 500 uM ATP over buffer (Cy3 cluster intensity, sum of 5 cycles each) (fold (ratio)); higher = stronger signal-on switching upon ATP binding; sequences stand for … in TCGTCGGCAGCGTCAGATGTGTATAAGAGACAGTTTTTTTTTTTTTTTTTTTTTTTTT…TC
Settings: aptamer strand: ATP DNA aptamer (quencher-CACCTGGGGGAGTATTGCGGAGGAAGG + anchor), 100 nM annealed; ATP concentration: 500 uM
Outline: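 Imaging in selection buffer was followed by imaging after 15 min with 500 uM ATP at 22 °C, for Cy3-labelled switching-strand clusters annealed to 100 nM quencher-labelled ATP aptamer on a modified Illumina MiSeq flow-cell. Five of these buffer/ATP cycles ran, separated by NaOH stripping and re-annealing. The fluorescence ratio per cluster is summed target-cycle over summed buffer-cycle Cy3 intensity, averaged per switch-domain sequence; clusters outside 100-1000 RFU were removed.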
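Also: ATP exposure 15 min at 22 °C before imaging.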

| Sequence | switch fluorescence ratio |
| --- | --- |
| CATGAGGTCG | 0.989 ± 0.047 |
| CATGAGGTTA | 0.9855 ± 0.0094 |
| CATGATAAT | 0.998 ± 0.022 |
| CATGATGGGG | 0.96 ± 0.027 |
| CATGATTGAT | 0.976 ± 0.029 |
| CATGCAGGGT | 1.04 ± 0.016 |
| CATGCCAAGC | 1.15 ± 0.045 |
| CATGCGGCTA | 1.05 ± 0.044 |
| CATGCGGTTG | 0.978 ± 0.013 |
| CATGCGTTG | 0.9898 ± 0.0016 |
| CATGCTATTC | 1.17 ± 0.049 |
| CATGGAGATT | 0.9866 ± 0.0092 |
| CATGGATGAA | 1.04 ± 0.007 |
| CATGGATGCC | 0.998 ± 0.022 |
| CATGGCACTT | 1.009 ± 0.0041 |
| CATGGCTTAT | 1.01 ± 0.038 |
| CATGGGAAGG | 0.997 ± 0.034 |
| CATGGGAAGT | 1.01 ± 0.035 |
| CATGGGACGT | 0.988 ± 0.071 |
| CATGGGAGTT | 0.978 ± 0.025 |
| CATGGGGATT | 1.017 ± 0.0057 |
| CATGGGGCGG | 1 ± 0.052 |
| CATGGGGGAC | 0.995 ± 0.031 |
| CATGGGGGCG | 1.01 ± 0.078 |
| CATGGGGGTC | 1 ± 0.036 |

| Sequence | switch fluorescence ratio |
| --- | --- |
| CATGGGGTCT | 1.03 ± 0.05 |
| CATGGGGTTT | 1.01 ± 0.018 |
| CATGGTAAGT | 0.994 ± 0.053 |
| CATGGTTCGC | 0.985 ± 0.053 |
| CATGGTTCTG | 1.02 ± 0.027 |
| CATGGTTGCG | 0.987 ± 0.022 |
| CATGGTTTTT | 0.9989 ± 0.0082 |
| CATGTAGGTG | 1.06 ± 0.048 |
| CATGTAGTCT | 1.04 ± 0.013 |
| CATGTAGTGC | 1.03 ± 0.089 |
| CATGTCGGTT | 0.991 ± 0.019 |
| CATGTGTTTG | 0.993 ± 0.014 |
| CATGTTGCGA | 1.04 ± 0.023 |
| CATGTTTGCC | 1.02 ± 0.015 |
| CATGTTTGTG | 0.982 ± 0.023 |
| CATGTTTTTT | 0.987 ± 0.024 |
| CATTAAGTCT | 1.02 ± 0.036 |
| CATTAATAGT | 0.98 ± 0.031 |
| CATTACAACA | 1.02 ± 0.059 |
| CATTACGCCG | 1.11 ± 0.042 |
| CATTACGGCG | 0.995 ± 0.043 |
| CATTAGACAT | 0.994 ± 0.026 |
| CATTAGAGGG | 0.988 ± 0.031 |
| CATTAGGGTC | 0.932 ± 0.019 |
| CATTAGTCGT | 0.996 ± 0.013 |

| Sequence | switch fluorescence ratio |
| --- | --- |
| CATTAGTTGT | 1.02 ± 0.011 |
| CATTAGTTTC | 1 ± 0.028 |
| CATTATACAT | 1.01 ± 0.023 |
| CATTATAGAT | 0.997 ± 0.021 |
| CATTATAGCG | 0.991 ± 0.023 |
| CATTATGTGC | 0.981 ± 0.027 |
| CATTATGTTG | 0.969 ± 0.036 |
| CATTATTTAG | 1.01 ± 0.033 |
| CATTATTTGG | 1.003 ± 0.002 |
| CATTATTTTT | 1.01 ± 0.024 |
| CATTCATGTT | 0.985 ± 0.024 |
| CATTCATTGA | 0.998 ± 0.049 |
| CATTCGATGC | 1.265 ± 0.0044 |
| CATTCGCTTT | 1.88 ± 0.036 |
| CATTCGTAGG | 0.965 ± 0.042 |
| CATTCTAAAG | 1.02 ± 0.011 |
| CATTCTACGT | 1.04 ± 0.018 |
| CATTCTATGC | 1.03 ± 0.011 |
| CATTCTCAAT | 1.17 ± 0.056 |
| CATTGAAATT | 0.968 ± 0.032 |
| CATTGAGGGC | 0.987 ± 0.021 |
| CATTGCATTT | 1.3 ± 0.4 |
| CATTGCTATT | 1.02 ± 0.017 |
| CATTGGACGT | 1.029 ± 0.0063 |
| CATTGGGTG | 1.05 ± 0.018 |

| Sequence | switch fluorescence ratio |
| --- | --- |
| CATTGGGTGT | 1.03 ± 0.0098 |
| CATTGTGACT | 1 ± 0.016 |
| CATTGTGCCT | 1.04 ± 0.018 |
| CATTGTGTGA | 0.994 ± 0.021 |
| CATTGTGTTT | 0.9707 ± 0.0029 |
| CATTTAAGTC | 0.995 ± 0.023 |
| CATTTACGCT | 1.03 ± 0.014 |
| CATTTAGTAT | 1.01 ± 0.013 |
| CATTTATTCT | 0.9615 ± 0.0021 |
| CATTTATTGT | 0.992 ± 0.018 |
| CATTTCAAGG | 1 ± 0.043 |
| CATTTGCTCT | 1 ± 0.013 |
| CATTTGGATG | 1.02 ± 0.013 |
| CATTTGGCGT | 0.972 ± 0.029 |
| CATTTGGGGG | 0.977 ± 0.025 |
| CATTTGGTCG | 0.955 ± 0.13 |
| CATTTTAATA | 1.01 ± 0.021 |
| CATTTTGTAG | 1.039 ± 0.0043 |
| CATTTTTGAA | 1.006 ± 0.0066 |
| CATTTTTGTG | 0.9534 ± 0.0061 |
| CATTTTTTAG | 1.01 ± 0.016 |
| CCAAAATTGA | 1 ± 0.014 |
| CCAAACTTAG | 1.02 ± 0.027 |
| CCAAAGAGGG | 0.993 ± 0.02 |
| CCAAAGCTAG | 2.1 ± 0.028 |

| Sequence | switch fluorescence ratio |
| --- | --- |
| CCAAATCAGA | 0.986 ± 0.021 |
| CCAACGGTCT | 1.04 ± 0.0012 |
| CCAAGAGGAC | 1 ± 0.027 |
| CCAAGATGTG | 0.997 ± 0.01 |
| CCAAGCGGTA | 1.3 ± 0.026 |
| CCAAGGGATG | 0.967 ± 0.018 |
| CCAAGGGGAG | 0.988 ± 0.037 |
| CCAAGGGGTT | 1.01 ± 0.03 |
| CCAATAGAGT | 0.997 ± 0.046 |
| CCAATATAGC | 1.21 ± 0.016 |
| CCAATATTCG | 1.09 ± 0.056 |
| CCAATGAGGT | 0.9962 ± 0.0084 |
| CCAATGATAA | 1.014 ± 0.0034 |
| CCAATTGCGC | 1.03 ± 0.031 |
| CCAATTTGCT | 1.02 ± 0.056 |
| CCACCTTAAG | 1.04 ± 0.033 |
| CCACGAAGAT | 1.061 ± 0.0037 |
| CCACGCCAGG | 2.79 ± 0.084 |
| CCACGCCCGG | 1.15 ± 0.099 |
| CCACGCCTGT | 1.09 ± 0.022 |
| CCACTATTCT | 1.001 ± 0.0062 |
| CCACTTTCCT | 1.2 ± 0.021 |
| CCAGAAGGGT | 0.974 ± 0.02 |
| CCAGACACAC | 1.45 ± 0.018 |
| CCAGACAGC | 1.01 ± 0.052 |

| Sequence | switch fluorescence ratio |
| --- | --- |
| CCAGACCAGT | 1.011 ± 0.0024 |
| CCAGAGGAAT | 1.043 ± 0.0079 |
| CCAGAGGGGG | 0.985 ± 0.067 |
| CCAGAGGGGT | 1.04 ± 0.02 |
| CCAGAGTGTT | 1.33 ± 0.04 |
| CCAGCCTTTT | 1.025 ± 0.0039 |
| CCAGCTACGG | 1.06 ± 0.053 |
| CCAGCTGTAT | 1.04 ± 0.0024 |
| CCAGCTTTTT | 0.957 ± 0.054 |
| CCAGGAATAA | 1.11 ± 0.14 |
| CCAGGAGTGT | 1.08 ± 0.012 |
| CCAGGCTCTG | 0.993 ± 0.006 |
| CCAGGGGCGC | 1.04 ± 0.017 |
| CCAGGGGCGG | 1.067 ± 0.002 |
| CCAGGGGCGT | 1.393 ± 0.012 |
| CCAGGGGTCC | 2.93 ± 2.4 |
| CCAGGGTTGG | 1.04 ± 0.048 |
| CCAGGTAGCA | 1.27 ± 0.12 |
| CCAGGTATGG | 1.05 ± 0.013 |
| CCAGGTCATA | 1.07 ± 0.011 |
| CCAGGTCCGC | 1.455 ± 0.0073 |
| CCAGTATGTG | 1.04 ± 0.054 |
| CCAGTCTGTA | 0.9492 ± 0.0057 |
| CCAGTGATGG | 1 ± 0.042 |
| CCAGTGGTTT | 1.01 ± 0.012 |

| Sequence | switch fluorescence ratio |
| --- | --- |
| CCATAAACTA | 1.01 ± 0.066 |
| CCATAACTTA | 0.9782 ± 0.0033 |
| CCATAAGAAT | 1.01 ± 0.038 |
| CCATACAGTT | 1.01 ± 0.021 |
| CCATAGGTCC | 1.017 ± 0.0071 |
| CCATAGTTTG | 0.993 ± 0.018 |
| CCATATCGTT | 0.997 ± 0.01 |
| CCATATTCTC | 1.016 ± 0.0072 |
| CCATCTATCG | 1.03 ± 0.026 |
| CCATCTCTGG | 0.979 ± 0.022 |
| CCATGCACTG | 1.017 ± 0.0028 |
| CCATGCCGGG | 0.979 ± 0.052 |
| CCATGGGCGA | 1.1 ± 0.02 |
| CCATGGGGCT | 1.29 ± 0.46 |
| CCATGGGTTC | 1.0016 ± 0.00068 |
| CCATGGTTAT | 1.026 ± 0.0034 |
| CCATGTTGCT | 0.9612 ± 0.0059 |
| CCATTAAACT | 1.014 ± 0.008 |
| CCATTAGCAT | 2.12 ± 0.2 |
| CCATTATATC | 1.01 ± 0.047 |
| CCATTCTTCG | 1.08 ± 0.028 |
| CCATTGACGG | 1.04 ± 0.02 |
| CCATTGCACG | 1.16 ± 0.12 |
| CCATTGCTCG | 1.04 ± 0.05 |
| CCATTGTAGC | 1.03 ± 0.024 |

| Sequence | switch fluorescence ratio |
| --- | --- |
| CCATTTAGTT | 1.09 ± 0.12 |
| CCATTTCTTG | 0.9906 ± 0.0095 |
| CCATTTTTTT | 0.997 ± 0.042 |
| CCCAAAGCGG | 1.09 ± 0.032 |
| CCCAAAGGGG | 1.04 ± 0.04 |
| CCCAATTTTG | 1.05 ± 0.069 |
| CCCAGATTAA | 1.01 ± 0.085 |
| CCCAGGGGA | 1.91 ± 1 |
| CCCAGTGGGA | 2.25 ± 1.7 |
| CCCATACTGA | 1.11 ± 0.036 |
| CCCATAGTAT | 1.01 ± 0.058 |
| CCCCACTTGC | 1.32 ± 0.11 |
| CCCCAGGAAT | 1.24 ± 0.027 |
| CCCCATTTTT | 1.06 ± 0.067 |
| CCCCGGATTT | 1.09 ± 0.098 |
| CCCCGTTAGT | 1.01 ± 0.08 |
| CCCCTTGCTC | 1.47 ± 0.058 |
| CCCCTTGGGG | 1.036 ± 0.0031 |
| CCCCTTGTGT | 2.087 ± 0.015 |
| CCCGACAGCC | 1.97 ± 0.3 |
| CCCGAGGGTT | 1.01 ± 0.017 |
| CCCGGGGCTA | 1.08 ± 0.036 |
| CCCGGGGGGG | 1.1 ± 0.13 |
| CCCGGGGTAC | 2.969 ± 0.027 |
| CCCGGGGTAT | 1.06 ± 0.057 |
